These results are taken from article PMC10104587 (Proceedings of the National Academy of Sciences of the …, 2023).

B1: CNGB1 subunit of the bovine rod CNG channel (natural protein)
chain: MLGWVQRVLPQPPGTPQKTKQEEEGTEPEPELEPKPETAPEETELEEVSLPPEEPCVGKEVAAVTLGPQGTQETALTPPTSLQAQVSVAPEAHSSPRGWVLTWLRKGVEKVVPQPAHSSRPSQNIAAGLESPDQQAGAQILGQCGTGGSDEPSEPSRAEDPGPGPWLLRWFEQNLEKMLPQPPKISEGWRDEPTDAALGPEPPGPALEIKPMLQAQESPSLPAPGPPEPEEEPIPEPQPTIQASSLPPPQDSARLMAWILHRLEMALPQPVIRGKGGEQESDAPVTCDVQTISILPGEQEESHLILEEVDPHWEEDEHQEGSTSTSPRTSEAAPADEEKGKVVEQTPRELPRIQEEKEDEEEEKEDGEEEEEEGREKEEEEGEEKEEEEGREKEEEEGEKKEEEGREKEEEEGGEKEDEEGREKEEEEGRGKEEEEGGEKEEEEGRGKEEVEGREEEEDEEEEQDHSVLLDSYLVPQSEEDRSEESETQDQSEVGGAQAQGEVGGAQALSEESETQDQSEVGGAQDQSEVGGAQAQGEVGGAQEQDGVGGAQDQSTSHQELQEEALADSSGVPATEEHPELQVEDADADSRPLIAEENPPSPVQLPLSPAKSDTLAVPGSATGSLRKRLPSQDDEAEELKMLSPAASPVVAWSDPTSPQGTDDQDRATSTASQNSAIINDRLQELVKLFKERTEKVKEKLIDPDVTSDEESPKPSPAKKAPEPAPEVKPAEAGQVEEEHYCEMLCCKFKRRPWKKYQFPQSIDPLTNLMYILWLFFVVLAWNWNCWLIPVRWAFPYQTPDNIHLWLLMDYLCDLIYLLDITVFQMRLQFVRGGDIITDKKEMRNNYVKSQRFKMDMLCLLPLDLLYLKFGVNPLLRLPRCLKYMAFFEFNNRLESILSKAYVYRVIRTTAYLLYSLHLNSCLYYWASAYEGLGSTHWVYDGVGNSYIRCYYWAVKTLITIGGLPDPRTLFEIVFQGLNYFTGVFAFSVMIGQMRDVVGAATAGQTYYRSCMDSTVKYMNFYKIPRSVQNRVKTWYEYTWHSQGMLDESELMVQLPDKMRLDLAIDVNYSIVSKVALFQGCDRQMIFDMLKRLRSVVYLPNDYVCKKGEIGREMYIIQAGQVQVLGGPDGKSVLVTLKAGSVFGEISLLAVGGGNRRTANVVAHGFTNLFILDKKDLNEILVHYPESQKLLRKKARRMLRNNNKPKEKSVLILPPRAGTPKLFNAALAAAGKMGAKGGRGGRLALLRARLKELAALEAAARQQQLLEQAKSSEDAAVGEEGSASPEQPPRPEPPAPEAPAPEPTAPEPLAPEAPAPEAPAPSSPPPASQERPEGDKDAARPEEHPVRIHVTLGPDPSEQILLVEVPEKQEEKEKKEEETEEKEEGEEARKEKEEE

One data set deals with bovine calmodulin (bovine, UniProt P62157 1-149). Description: limited proteolysis-coupled mass spectrometry.
The target in data set [1] is B1. Description: cryo-EM structure.
The data set “cryo-EM structure” deals with the molecule itself. Description: cryo-EM structure.

For B1, the binding result with bovine calmodulin is “binds”.

B2: CNGA1 subunit of the bovine rod CNG channel (natural protein, UniProt Q00194 1-690, looked up)
chain: MKKVIINTWHSFVNIPNVVGPDVEKEITRMENGACSSFSGDDDDSASMFEESETENPHARDSFRSNTHGSGQPSQREQYLPGAIALFNVNNSSNKEQEPKEKKKKKKEKKSKPDDKNENKKDPEKKKKKEKDKDKKKKEEKGKDKKEEEKKEVVVIDPSGNTYYNWLFCITLPVMYNWTMIIARACFDELQSDYLEYWLAFDYLSDVVYLLDMFVRTRTGYLEQGLLVKEERKLIDKYKSTFQFKLDVLSVIPTDLLYIKFGWNYPEIRLNRLLRISRMFEFFQRTETRTNYPNIFRISNLVMYIIIIIHWNACVYFSISKAIGFGNDTWVYPDVNDPDFGRLARKYVYSLYWSTLTLTTIGETPPPVRDSEYFFVVADFLIGVLIFATIVGNIGSMISNMNAARAEFQARIDAIKQYMHFRNVSKDMEKRVIKWFDYLWTNKKTVDEREVLKYLPDKLRAEIAINVHLDTLKKVRIFADCEAGLLVELVLKLQPQVYSPGDYICKKGDIGREMYIIKEGKLAVVADDGITQFVVLSDGSYFGEISILNIKGSKAGNRRTANIKSIGYSDLFCLSKDDLMEALTEYPDAKGMLEEKGKQILMKDGLLDINIANAGSDPKDLEEKVTRMESSVDLLQTRFARILAEYESMQQKLKQRLTKVEKFLKPLIDTEFSAIEGSGTESGPTDSTQD
With B2, the binding result (in data set [1]; in the data set “cryo-EM structure”; with bovine calmodulin) was “binds” each time.
